Reference: PMC10719372, “Molecular mechanism of phospholipid transport at the bacterial outer membrane interface” (Nature Communications, 2023)

B1: OmpC (natural protein, E. coli, UniProt P06996 22-367, looked up)
chain: AEVYNKDGNKLDLYGKVDGLHYFSDNKDVDGDQTYMRLGFKGETQVTDQLTGYGQWEYQIQGNSAENENNSWTRVAFAGLKFQDVGSFDYGRNYGVVYDVTSWTDVLPEFGGDTYGSDNFMQQRGNGFATYRNTDFFGLVDGLNFAVQYQGKNGNPSGEGFTSGVTNNGRDALRQNGDGVGGSITYDYEGFGIGGAISSSKRTDAQNTAAYIGNGDRAETYTGGLKYDANNIYLAAQYTQTYNATRVGSLGWANKAQNFEAVAQYQFDFGLRPSLAYLQSKGKNLGRGYDDEDILKYVDVGATYYFNKNMSTYVDYKINLLDDNQFTRDAGINTDNIVALGLVYQF
notes: OmpC, outer membrane porin, E. coli; In the pull-down with MlaA variants some samples may have held OmpC-His (pDSW206ompC-His) in place of untagged OmpC; also called osmoporin OmpC; trimeric OmpC; source: E. coli BL21(λDE3) ΔompF::kan, over-expressed from pDSW206ompC; in DDM-solubilised lysate (pull-down) and purified with its partners (Ni-NTA, SEC)

Assays:
OmpC [1] = molecular target: B1; assay: cryo-EM structure; disulfide-trapped OmpC3-MlaA^Q205C-MlaC^V171C-His in MSP2N2 nanodiscs with E. coli polar lipids; 2.9 Å overall, density of MlaC limited to 5.0-7.0 Å; conditions: both partners purified
OmpC [2] = molecular target: B1; assay: SEC-MALS; SEC-purified disulfide-trapped OmpC3-MlaA^Cys-MlaC^Cys-His at 3 mg/ml, Superdex 200 Increase 10/300 GL, TBS pH 8.0 with 0.025% DDM, protein-conjugate analysis; conditions: both partners purified
[3] = molecular target: the molecule itself; assay: as above

Binder	stoichiometry N (OmpC [1]) [per OmpC trimer]	stoichiometry N (OmpC [2]) [per OmpC trimer]	stoichiometry N [3]
MlaA^Q205C (of the disulfide-trapped OmpC-MlaA-MlaC complex) (natural protein, E. coli, UniProt P76506 18-251, looked up, engineered MlaA^Q205C-MlaC^V171C disulfide bond, MlaA, OM lipoprotein, E. coli; also called MlaA^Cys) CASSGTDQQGRSDPLEGFNRTMYNFNFNVLDPYIVRPVAVAWRDYVPQPARNGLSNFTGNLEEPAVMVNYFLQGDPYQGMVHFTRFFLNTILGMGGFIDVAGMANPKLQRTEPHRFGSTLGHYGVGYGPYVQLPFYGSFTLRDDGGDMADGFYPVLSWLTWPMSVGKWTLEGIETRAQLLDSDGLLRCSSDPYIMVREAYFQRHDFIANGGELKPQENPNAQAIQDDLKDIDSE	1 to 3	~2	
B1			3
